Biological target: His-Src SH3 (UniProt P12931 84-145)
Assay: SPR

## RKLPPRPSK [RLP1 peptide]
  Kd: 9.97 µM

Source: article PMC8895158 (2022)
